# How the values were obtained:
# [1] = molecular target: Populus trichocarpa tau glutathione transferase GSTU19 (PtGSTU19) (Populus trichocarpa); experiment: SEC-MALS; purified untagged recombinant protein; conditions not told in the text shown (Supplementary Figure S3B)
# [2] = molecular target: Populus trichocarpa tau glutathione transferase GSTU20 (PtGSTU20) (Populus trichocarpa); experiment: as above
# S=C=NCc1ccccc1 = experiment: purified protein, by the assay type; conditions: pH 8.0
# CCCCCC(O)C=CC=O = experiment: purified protein, by the assay type; conditions: pH 8.0; 25.0 °C
# [3] = test system: CCCC(=O)Oc1ccc([N+](=O)[O-])cc1; experiment: purified protein, by the assay type; conditions: pH 8.0
# S=C=NCCc1ccccc1 = experiment: purified protein, by the assay type; conditions: pH 8.0; 25.0 °C
# [4] = test system: CCCC(=O)Oc1ccc([N+](=O)[O-])cc1; experiment: GSH-conjugation activity toward model substrates, variant; format: biochemical, Populus trichocarpa; conditions: mean ± S.D., n = 3, pH 8.0
# Procedure: Peroxidase activity toward hydroperoxides was measured using an NADPH coupled spectrophotometric assay ([Pégeot et al., 2014]).
# The measured velocities were corrected by subtracting the rate of the spontaneous nonenzymatic reaction, and three independent experiments were performed at each substrate concentration.
# [5] = other: PtGSTU19 Y160A, fixed saturating GSH
# [6] = other: PtGSTU19 Y160C, fixed saturating GSH
# [7] = other: PtGSTU19 Y160F, fixed saturating GSH
# [8] = other: line printed as PtGSTU19 C160Y in Table S4, fixed saturating GSH
# PtGSTU20 (Populus trichocarpa), sequence (chain, as listed by the source): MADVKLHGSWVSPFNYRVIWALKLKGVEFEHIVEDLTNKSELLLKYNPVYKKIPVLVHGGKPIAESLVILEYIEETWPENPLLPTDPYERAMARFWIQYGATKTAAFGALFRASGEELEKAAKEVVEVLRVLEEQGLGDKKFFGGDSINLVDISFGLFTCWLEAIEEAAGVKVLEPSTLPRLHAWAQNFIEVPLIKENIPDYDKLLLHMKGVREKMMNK
# PtGSTU19 (Populus trichocarpa), sequence (chain, as listed by the source): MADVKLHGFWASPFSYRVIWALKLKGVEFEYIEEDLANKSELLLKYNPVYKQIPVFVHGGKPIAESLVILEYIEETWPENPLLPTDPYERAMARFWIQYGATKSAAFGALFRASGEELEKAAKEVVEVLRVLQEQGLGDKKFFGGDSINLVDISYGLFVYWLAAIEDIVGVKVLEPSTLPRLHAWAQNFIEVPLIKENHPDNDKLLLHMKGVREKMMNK
# PtGSTU19Y160C (Populus trichocarpa; Y160C), sequence (chain, as listed by the source Y160C): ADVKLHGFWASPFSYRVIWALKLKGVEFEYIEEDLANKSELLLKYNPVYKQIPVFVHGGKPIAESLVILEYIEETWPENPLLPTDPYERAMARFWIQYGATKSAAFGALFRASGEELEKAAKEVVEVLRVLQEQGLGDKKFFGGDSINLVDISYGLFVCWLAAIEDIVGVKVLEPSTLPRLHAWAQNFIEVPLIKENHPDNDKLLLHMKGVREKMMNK
# PtGSTU20C160Y (Populus trichocarpa; C160Y), sequence (chain, as listed by the source C160Y): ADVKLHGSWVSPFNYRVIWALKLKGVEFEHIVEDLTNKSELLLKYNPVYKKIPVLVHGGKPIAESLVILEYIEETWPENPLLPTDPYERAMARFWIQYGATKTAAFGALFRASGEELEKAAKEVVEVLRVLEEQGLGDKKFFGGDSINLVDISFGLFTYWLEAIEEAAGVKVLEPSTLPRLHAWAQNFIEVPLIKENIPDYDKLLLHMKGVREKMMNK
# PtGSTU19Y160A (Populus trichocarpa; Y160A), sequence (chain, as listed by the source Y160A): as the sequence (chain, as listed by the source Y160C) above, with C159A counted along it
# PtGSTU19Y160F (Populus trichocarpa; Y160F), sequence (chain, as listed by the source Y160F): as the sequence (chain, as listed by the source Y160C) above, with C159F counted along it
substance,measurement,setting,value
Populus trichocarpa tau glutathione transferase GSTU19 (PtGSTU19) (enzyme),stoichiometry N,[1],2
Populus trichocarpa tau glutathione transferase GSTU20 (PtGSTU20) (enzyme),stoichiometry N,[2],2
PtGSTU19 (Populus trichocarpa),Km,S=C=NCc1ccccc1,52.7 ± 3.6 µM
same,kcat,S=C=NCc1ccccc1,7 ± 0.1 s⁻¹
same,kcat/Km,S=C=NCc1ccccc1,132200 ± 200 M⁻¹ s⁻¹
same,Km,CCCCCC(O)C=CC=O,56.4 ± 7.4 µM
same,kcat,CCCCCC(O)C=CC=O,0.11 s⁻¹
same,kcat/Km,CCCCCC(O)C=CC=O,2000 M⁻¹ s⁻¹
same,Km,[3],443.5 ± 31.1 µM
same,kcat,[3],0.04 ± 0.001 s⁻¹
same,kcat/Km,[3],100 ± 2 M⁻¹ s⁻¹
same,Km,S=C=NCCc1ccccc1,48.4 ± 2.5 µM
same,kcat,S=C=NCCc1ccccc1,3.8 s⁻¹
same,kcat/Km,S=C=NCCc1ccccc1,79000 M⁻¹ s⁻¹
PtGSTU19Y160A (Populus trichocarpa; Y160A),Km,[4]; [5],534.6 ± 68.1 µM
same,kcat,[4]; [5],0.050 ± 0.002 s⁻¹
same,kcat/Km,[4]; [5],0.090 ± 0.004 103M-1.s-1
PtGSTU19Y160C (Populus trichocarpa; Y160C),Km,[4]; [6],518.3 ± 57.6 µM
same,kcat,[4]; [6],0.050 ± 0.002 s⁻¹
same,kcat/Km,[4]; [6],0.100 ± 0.003 103M-1.s-1
PtGSTU19Y160F (Populus trichocarpa; Y160F),Km,[4]; [7],693.2 ± 63.8 µM
same,kcat,[4]; [7],0.050 ± 0.002 s⁻¹
same,kcat/Km,[4]; [7],0.080 ± 0.003 103M-1.s-1
PtGSTU20 (Populus trichocarpa),Km,S=C=NCc1ccccc1,149.6 ± 17.6 µM
same,kcat,S=C=NCc1ccccc1,10.4 ± 0.3 s⁻¹
same,kcat/Km,S=C=NCc1ccccc1,69800 ± 2200 M⁻¹ s⁻¹
same,Km,CCCCCC(O)C=CC=O,30.6 ± 3.5 µM
same,kcat,CCCCCC(O)C=CC=O,0.11 s⁻¹
same,kcat/Km,CCCCCC(O)C=CC=O,3600 M⁻¹ s⁻¹
same,Km,[3],329.2 ± 28.1 µM
same,kcat,[3],0.02 ± 0.001 s⁻¹
same,kcat/Km,[3],60 ± 3 M⁻¹ s⁻¹
same,Km,S=C=NCCc1ccccc1,56.8 ± 4.1 µM
same,kcat,S=C=NCCc1ccccc1,5.1 s⁻¹
same,kcat/Km,S=C=NCCc1ccccc1,88900 M⁻¹ s⁻¹
PtGSTU20C160Y (Populus trichocarpa; C160Y),Km,[4]; [8],326.2 ± 67.6 µM
same,kcat,[4]; [8],0.020 ± 0.001 s⁻¹
same,kcat/Km,[4]; [8],0.060 ± 0.003 103M-1.s-1

# Reference: article PMC9412104, “Biochemical and Structural Insights on the Poplar Tau Glutathione Transferase GSTU19 and 20 Paralogs Binding Flavonoids” (Frontiers in Molecular Biosciences, 2022)
